Measurements published in the supplement of paper PMC10567573.

B1: PTPN9 (parent)
chain: IDFLRVVRNQQSLAVSNMGARSKG

Variants of: B1
Assay: protein stability index of a GFP-peptide fusion (GPS, HEK-293T) (PSI 1-6); higher = more stable
Details: c terminus: a fixed tail appended
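Note: lentivirally expressed fusions sorted by FACS into six bins by GFP to DsRed ratio, PSI derived from sequencing read proportions per bin multiplied by bin number.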

| Variant | protein stability index |
| --- | --- |
| IDFLRVVRNQQSLAVMNMGARSKG [S16M] | 1.83 |
| IDFLRVVRNQQRLAVSNMGARSKG [S12R] | 2.52 |
| IDFLRVVRNQQWLAVSNMGARSKG [S12W] | 1.69 |
| IDFLRVVRNQQKLAVSNMGARSKG [S12K] | 2.55 |
| IDFLRVVRNQQALAVSNMGARSKG [S12A] | 2.04 |
| IDFLRVVRNQQILAVSNMGARSKG [S12I] | 1.99 |
| IDFLRVVRNQQFLAVSNMGARSKG [S12F] | 2.26 |
| IDFLRVVRNQQTLAVSNMGARSKG [S12T] | 2.15 |
| IDFLRVVRNQQVLAVSNMGARSKG [S12V] | 2.34 |
| IDFLRVVRNQQMLAVSNMGARSKG [S12M] | 2.22 |
| IDFLRVVRNQQNLAVSNMGARSKG [S12N] | 2.1 |
| IDFLRVVRNQQYLAVSNMGARSKG [S12Y] | 1.8 |
| IDFLRVVRNQQDLAVSNMGARSKG [S12D] | 2.75 |
| IDFLRVVRNQQPLAVSNMGARSKG [S12P] | 2.46 |
| IDFLRVVRNQQELAVSNMGARSKG [S12E] | 2.65 |
| IDFLRVVRNQQLLAVSNMGARSKG [S12L] | 2.31 |
| IDFLRVVRNQQHLAVSNMGARSKG [S12H] | 2.41 |
| IDFLRVVRNQQQLAVSNMGARSKG [S12Q] | 2.02 |
| IDFLRVVRNQQCLAVSNMGARSKG [S12C] | 1.89 |
| IDFLRVVRNQQGLAVSNMGARSKG [S12G] | 2.48 |
| IDFLRVVRNQQSLAVSNKGARSKG [M18K] | 2.87 |
| IDFLRVVRNQQSLAVSNEGARSKG [M18E] | 3.28 |
| IDFLRVVRNQQSLAVSNRGARSKG [M18R] | 3.35 |
| IDFLRVVRNQQSLAVSNVGARSKG [M18V] | 2.32 |

| Variant | protein stability index |
| --- | --- |
| IDFLRVVRNQQSLAVSNHGARSKG [M18H] | 2.91 |
| IDFLRVVRNQQSLAVSNCGARSKG [M18C] | 2.51 |
| IDFLRVVRNQQSLAVSNGGARSKG [M18G] | 2.85 |
| IDFLRVVRNQQSLAVSNPGARSKG [M18P] | 2.57 |
| IDFLRVVRNQQSLAVSNQGARSKG [M18Q] | 2.73 |
| IDFLRVVRNQQSLAVSNYGARSKG [M18Y] | 2.04 |
| IDFLRVVRNQQSLAVSNTGARSKG [M18T] | 3.23 |
| IDFLRVVRNQQSLAVSNAGARSKG [M18A] | 3.02 |
| IDFLRVVRNQQSLAVSNNGARSKG [M18N] | 3.06 |
| IDFLRVVRNQQSLAVSNIGARSKG [M18I] | 2.13 |
| IDFLRVVRNQQSLAVSNWGARSKG [M18W] | 2.03 |
| IDFLRVVRNQQSLAVSNSGARSKG [M18S] | 3.13 |
| IDFLRVVRNQQSLAVSNFGARSKG [M18F] | 2 |
| IDFLRVVRNQQSLAVSNDGARSKG [M18D] | 3.05 |
| IDFLRVVRNQQSLAVSNLGARSKG [M18L] | 2.67 |
| IDFLRVVRNQQSLAVSNMGPRSKG [A20P] | 2.57 |
| IDFLRVVRNQQSLAVSNMGVRSKG [A20V] | 2.42 |
| IDFLRVVRNQQSLAVSNMGKRSKG [A20K] | 2.69 |
| IDFLRVVRNQQSLAVSNMGERSKG [A20E] | 1.92 |
| IDFLRVVRNQQSLAVSNMGNRSKG [A20N] | 2.78 |
| IDFLRVVRNQQSLAVSNMGSRSKG [A20S] | 2.75 |
| IDFLRVVRNQQSLAVSNMGRRSKG [A20R] | 2.47 |
| IDFLRVVRNQQSLAVSNMGIRSKG [A20I] | 1.99 |
| IDFLRVVRNQQSLAVSNMGCRSKG [A20C] | 2.6 |

| Variant | protein stability index |
| --- | --- |
| IDFLRVVRNQQSLAVSNMGTRSKG [A20T] | 2.06 |
| IDFLRVVRNQQSLAVSNMGWRSKG [A20W] | 2.32 |
| IDFLRVVRNQQSLAVSNMGDRSKG [A20D] | 2.57 |
| IDFLRVVRNQQSLAVSNMGFRSKG [A20F] | 2.1 |
| IDFLRVVRNQQSLAVSNMGLRSKG [A20L] | 2.21 |
| IDFLRVVRNQQSLAVSNMGMRSKG [A20M] | 2.32 |
| IDFLRVVRNQQSLAVSNMGHRSKG [A20H] | 2.38 |
| IDFLRVVRNQQSLAVSNMGGRSKG [A20G] | 2.43 |
| IDFLRVVRNQQSLAVSNMGQRSKG [A20Q] | 2.25 |
| IDFLRVVRNQQSTAVSNMGARSKG [L13T] | 2.57 |
| IDFLRVVRNQQSEAVSNMGARSKG [L13E] | 3.58 |
| IDFLRVVRNQQSCAVSNMGARSKG [L13C] | 2.14 |
| IDFLRVVRNQQSRAVSNMGARSKG [L13R] | 2.34 |
| IDFLRVVRNQQSDAVSNMGARSKG [L13D] | 3.08 |
| IDFLRVVRNQQSKAVSNMGARSKG [L13K] | 2.75 |
| IDFLRVVRNQQSMAVSNMGARSKG [L13M] | 2.51 |
| IDFLRVVRNQQSSAVSNMGARSKG [L13S] | 2.7 |
| IDFLRVVRNQQSNAVSNMGARSKG [L13N] | 3.2 |
| IDFLRVVRNQQSVAVSNMGARSKG [L13V] | 2.85 |
| IDFLRVVRNQQSWAVSNMGARSKG [L13W] | 2.72 |
| IDFLRVVRNQQSPAVSNMGARSKG [L13P] | 2.96 |
| IDFLRVVRNQQSAAVSNMGARSKG [L13A] | 2.73 |
| IDFLRVVRNQQSFAVSNMGARSKG [L13F] | 2.34 |
| IDFLRVVRNQQSGAVSNMGARSKG [L13G] | 3.24 |

| Variant | protein stability index |
| --- | --- |
| IDFLRVVRNQQSHAVSNMGARSKG [L13H] | 2.45 |
| IDFLRVVRNQQSYAVSNMGARSKG [L13Y] | 2.57 |
| IDFLRVVRNQQSQAVSNMGARSKG [L13Q] | 3.3 |
| IDFLRVVRNQQSIAVSNMGARSKG [L13I] | 2.31 |
| IDFLRVVRNQKSLAVSNMGARSKG [Q11K] | 2.26 |
| IDFLRVVRNQFSLAVSNMGARSKG [Q11F] | 1.95 |
| IDFLRVVRNQLSLAVSNMGARSKG [Q11L] | 1.81 |
| IDFLRVVRNQRSLAVSNMGARSKG [Q11R] | 2.31 |
| IDFLRVVRNQWSLAVSNMGARSKG [Q11W] | 1.34 |
| IDFLRVVRNQNSLAVSNMGARSKG [Q11N] | 2.84 |
| IDFLRVVRNQYSLAVSNMGARSKG [Q11Y] | 2.12 |
| IDFLRVVRNQVSLAVSNMGARSKG [Q11V] | 1.67 |
| IDFLRVVRNQGSLAVSNMGARSKG [Q11G] | 2.35 |
| IDFLRVVRNQTSLAVSNMGARSKG [Q11T] | 2.29 |
| IDFLRVVRNQDSLAVSNMGARSKG [Q11D] | 2.57 |
| IDFLRVVRNQESLAVSNMGARSKG [Q11E] | 2.35 |
| IDFLRVVRNQISLAVSNMGARSKG [Q11I] | 1.8 |
| IDFLRVVRNQPSLAVSNMGARSKG [Q11P] | 2.37 |
| IDFLRVVRNQMSLAVSNMGARSKG [Q11M] | 2.1 |
| IDFLRVVRNQHSLAVSNMGARSKG [Q11H] | 2.26 |
| IDFLRVVRNQCSLAVSNMGARSKG [Q11C] | 1.91 |
| IDFLRVVRNQSSLAVSNMGARSKG [Q11S] | 2.31 |
